In paper doi:10.1101/2025.07.04.663185 (bioRxiv, 2025):

Target: Cdc2-GFP (S. pombe, UniProt P04551 1-297)
Experiment: affinity purification with mass spectrometry

Sequence of Cdc2-GFP (P04551 whole entry): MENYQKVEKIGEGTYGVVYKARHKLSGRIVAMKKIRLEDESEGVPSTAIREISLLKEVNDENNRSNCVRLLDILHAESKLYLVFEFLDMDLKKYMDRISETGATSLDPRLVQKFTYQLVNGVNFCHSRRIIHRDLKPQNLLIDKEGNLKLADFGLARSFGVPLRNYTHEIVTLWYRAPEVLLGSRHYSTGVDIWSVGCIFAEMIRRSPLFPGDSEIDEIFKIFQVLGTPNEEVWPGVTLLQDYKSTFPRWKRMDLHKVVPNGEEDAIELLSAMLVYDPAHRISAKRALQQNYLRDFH

Row | Binder | fold increase in association with Cdc2, suc1^ts versus suc1+ cells [fold]
1 | Cdc25 (enzyme) MDSPLSSLSFTNTLSGKRNVLRPAARELKLMSDRNANQELDFFFPKSKHIASTLVDPFGKTCSTASPASSLAADMSMNMHIDESPALPTPRRTLFRSLSCTVETPLANKTIVSPLPESPSNDALTESYFFRQPASKYSITQDSPRVSSTIAYSFKPKASIALNTTKSEATRSSLSSSSFDSYLRPNVSRSRSSGNAPPFLRSRSSSSYSINKKKGTSGGQATRHLTYALSRTCSQSSNTTSLLESCLTDDTDDFELMSDHEDTFTMGKVADLPESSVELVEDAASIQRPNSDFGACNDNSLDDLFQASPIKPIDMLPKINKDIAFPSLKVRSPSPMAFAMQEDAEYDEQDTPVLRRTQSMFLNSTRLGLFKSQDLVCVTPKQSTKESERFISSHVEDLSLPCFAVKEDSLKRITQETLLGLLDGKFKDIFDKCIIIDCRFEYEYLGGHISTAVNLNTKQAIVDAFLSKPLTHRVALVFHCEHSAHRAPHLALHFRNTDRRMNSHRYPFLYYPEVYILHGGYKSFYENHKNRCDPINYVPMNDASHVMTCTKAMNNFKRNATFMRTKSYTFGQSVLASPDVNDSPTAMHSLSTLRRF | 3
2 | Wee1 (enzyme) MSSSSNTSSHRSYGLRRSQRSMNLNRATLLAPPTPSSLYDANNSTSSTSSQKPNTSFTSLFGPRKQTTSSPSFSHAAPLHPLSPPSFTHSQPQIQAQPVPRRPSLFDRPNLVSRSSSRLGDSPSLSPVAQVANPIHHTAPSPSDVRAFPIHKNASTGVKRSFFSSSMSNGAMSPPSHSPSPFLQSSQHIPPSTPAQKLRKKNNFDSFRISNSHISPFASGSFSPFATSSPNFLSTSTPAPPNSNNANPSTLFSSIPSSRHTTSNHFPSNSAQSSLFSPTARPLTARKLGFASSQTKSAVSNNHSRNSSKDASFMMKSFIPSNRSHPQTQQNESSLFSDNSMVNSSSNSFSLFPNATLPNPPSSELLTTPFQQIKPPSQVFMSTGLLSKQHRPRKNINFTPLPPSTPSKPSTFVRPHSSSTDSPPSPSTPSNTQTDSYFIQRENTPTNHNSIPTIQLEKSSMDFLRFDPPPSAVKTSHNYGLPFLSNQRCPATPTRNPFAFENTVSIHMDGRQPSPIKSRNNNQMSFAMEEEADVSQPSSSSFTLSFPSALTSSKVSSSTSHLLTRFRNVTLLGSGEFSEVFQVEDPVEKTLKYAVKKLKVKFSGPKERNRLLQEVSIQRALKGHDHIVELMDSWEHGGFLYMQVELCENGSLDRFLEEQGQLSRLDEFRVWKILVEVALGLQFIHHKNYVHLDLKPANVMITFEGTLKIGDFGMASVWPVPRGMEREGDCEYIAPEVLANHLYDKPADIFSLGITVFEAAANIVLPDNGQSWQKLRSGDLSDAPRLSSTDNGSSLTSSSRETPANSIIGQGGLDRVVEWMLSPEPRNRPTIDQILATDEVCWVEMRRKAGAIIYEGIHGSSSNPQGDQMMEDWQVNV | 2.5
